From patent US20260308224A1, “METHODS AND COMPOSITIONS FOR DISPLAYING PEPTIDE LIBRARIES” (priority 2023, published 2026)

Experiments:
KOR = biological target: T1, KOR (Homo sapiens, UniProt P41145); assay: tethered peptide library sorting on GFP fluorescence with NGS; assay type: cell-based; details: metric: positive count
T1 construct: Gpa1 with human Gi3 C-terminal five residues; tethered peptide display
Text: (§1) The first, henceforth referred to as library 1, site saturated the first four positions of the peptide, YGGF, using an NNK mutagenesis strategy (FIG. 5). This is canonically the “message” region, understood to be integral to opioid receptor signaling, with the tyrosine being particularly important. […] In creating this library, it was hoped that it could be determined how much variation is tolerated in this region, and how this might differ for opioid receptor sub-type.
(§2) The second library, library 2, saturated the latter four residues of the peptide, LRRI (FIG. 5). This “address” region is thought to confer receptor specificity, interacting with receptor residues further up the binding pocket (Metzger et al. 2001; Xue et al. 1994; Marie-Pepin et al. 1997), but can still be important for receptor activity. It was hypothesized that more variation would be tolerated in this region, including more sub-type specific variation.
(§3) Libraries were sorted twice on GFP fluorescence. Roughly 15 times the theoretical nucleotide complexity was sorted to ensure rare variants were assayed. […] After the second sorts, the genomes of the positive and negative populations were prepped and the library cassettes were sequenced in technical replicate using NGS at a depth of at least 1 million reads.
(§4) Several strategies were used to both identify unique binders for receptor sub-type and identify generally preferred residues and motifs. Log proportions between the positive and negative pools were determined with a filter of-11 (FIG. 6). […] Because the libraries were sorted twice, and the fraction of cells with a GFP signal small, strong signalers were expected to be present in relatively high numbers in the positive pool.
(§5) To incorporate both metrics, log proportions after a cut off of 500 nucleotide read counts were also determined (FIGS. 7 and 8).
(§6) Beyond identification of general motif trends, variants unique to individual receptors were determined. For a general idea of variant specificity, plots showing receptor specificity by the log proportion metric were generated (FIGS. 12 and 13). […] Logo plots of receptor-unique variants by this metric are highlighted in FIGS. 14 and 15. To account for the noise around potentially low count variants, log proportions between positive and negative pools were determined after filtering on a minimum variant read count of 500 in the positive and negative pools. Variants that were receptor unique by this metric are highlighted in the logo plots in FIGS. 16 and 17.
(§7) Peptide candidates for further analysis were determined by manually curating the three discussed methods (Table 1).
(§8) For cell sorting experiments, post-transformation outgrowths were grown overnight in SD-URA/His pH 5.8 media, and cultures were passaged the following day 1:25 to minimize dead and untransformed cells. The following day the saturated cultures were washed three times in SD-URA/His pH 7.1 100 mM MOPS media without a carbon source to minimize glucose carry-over. Cultures were then diluted 1:10 their initial volume in SD-URA/His pH. 7.1 100 mM MOPS 2% galactose 0.2% glucose media and grown for 24 hours. Cells were then resuspended in an equal volume of TE pH 8.0 and 14-15 million events were sorted using a SH800S Cell Sorter (Sony) on GFP fluorescence, gated for singlets. Cells were sorted into SD-His/URA pH 5.8 media with pen/strep and grown for two days post sorting. Cultures were again washed and induced with galactose and sorted via the same parameters into positive and negative pools and grown up for 2 days. Genome extractions were performed using a Zymo Yeast Star kit.

human opioid receptors = assay: tethered peptide orientations and controls, GFP reporter signaling in yeast; assay type: cell-based; details: pGal1, integrated; FIG. 20 (cholesterol-producing strain CJM263)
Experimental: (§9) Due to the limited application and efficacy of activating human GPCRs via this strategy, several tethering orientations for the dynorphin peptides were attempted. Anchoring with Flo42 at both the N- and C-termini of the peptides was tried. Additionally, versions with and without a glycine-serine linker between the peptide and the Flo42 region were assayed (versions with linker, FIG. 19). To enable rapid screening, the tethered peptide cassette was expressed on a plasmid under the control of a constitutive promoter.
This optimized tethering orientation was then assayed in the context to be used for library peptide display. Expression was driven by a galactose-inducible promoter, pGal1, and the construct was integrated into the yeast genome. The inducible promoter was used to control the length of peptide expression and minimize potential for unwanted selection from long-term constitutive expression. Like the tethered peptide cassette, receptors were integrated into the genome to avoid downstream issues with variable plasmid copy number and sorting (Bean et al. 2022). […] It was decided to screen MOR with the peptide libraries to determine if there were any variations that could rescue function, with the hypothesis that the sequence space assayed would likely contain variants capable of activating the receptor. […]

MOR = biological target: T2, MOR (Homo sapiens, UniProt P35372); assay: tethered peptide library sorting on GFP fluorescence with NGS; assay type: cell-based; details: metric: positive count
T2 construct: Gpa1/Gi3 chimeric G alpha; exogenous or tethered peptides
T2 sequence (P35372 whole entry): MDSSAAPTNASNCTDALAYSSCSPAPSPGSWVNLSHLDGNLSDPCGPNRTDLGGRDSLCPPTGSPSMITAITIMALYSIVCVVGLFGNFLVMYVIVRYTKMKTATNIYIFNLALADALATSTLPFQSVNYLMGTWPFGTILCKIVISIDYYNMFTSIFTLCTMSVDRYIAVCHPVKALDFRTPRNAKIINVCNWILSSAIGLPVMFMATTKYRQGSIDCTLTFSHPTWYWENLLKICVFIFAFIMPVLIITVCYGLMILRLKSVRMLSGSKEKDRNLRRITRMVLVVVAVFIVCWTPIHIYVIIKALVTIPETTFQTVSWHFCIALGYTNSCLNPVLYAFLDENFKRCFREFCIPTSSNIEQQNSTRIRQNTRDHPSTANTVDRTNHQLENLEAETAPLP
Text: as §1, §2, §3, §4, §5, §6, §7, §8

DOR [1] = biological target: T3, DOR (Homo sapiens, UniProt P41143); assay: as above; assay type: cell-based; details: metric: positive count
T3 construct: Gpa1 with human Gi3 C-terminal five residues; tethered peptide display
T3 sequence (P41143 whole entry): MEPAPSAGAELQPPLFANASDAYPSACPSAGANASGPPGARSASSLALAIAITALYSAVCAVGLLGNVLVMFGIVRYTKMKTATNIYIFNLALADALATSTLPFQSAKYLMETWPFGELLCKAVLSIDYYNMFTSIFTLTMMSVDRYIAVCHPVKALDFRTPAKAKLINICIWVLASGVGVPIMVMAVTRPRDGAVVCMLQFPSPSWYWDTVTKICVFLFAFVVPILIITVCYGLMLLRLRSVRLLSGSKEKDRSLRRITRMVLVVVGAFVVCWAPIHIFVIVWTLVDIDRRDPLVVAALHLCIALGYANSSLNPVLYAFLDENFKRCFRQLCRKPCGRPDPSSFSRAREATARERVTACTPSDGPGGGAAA
Text: as §1, §2, §3, §4, §5, §6, §7, §8

DOR [2] = biological target: T3, DOR; assay: tethered peptide agonist display, GFP reporter signaling in yeast; assay type: cell-based; details: individually cloned tethered isolates (FIG. 27)
Experimental: as §9, with “Anchoring” for “Due to the limited application and efficacy of activating human GPCRs via this strategy, several tethering orientations for the dynorphin peptides were attempted. Anchoring”
Expression was driven by a galactose-inducible promoter, pGal1, and the construct was integrated into the yeast genome. The inducible promoter was used to control the length of peptide expression and minimize potential for unwanted selection from long-term constitutive expression. Like the tethered peptide cassette, receptors were integrated into the genome to avoid downstream issues with variable plasmid copy number and sorting (Bean et al. 2022).
Plasmids were constructed using Golden Gate assembly of components from the Yeast Toolkit with some adaptations. Receptors were expressed on either 2μ URA3 backbones driven by the CCW12 promoter or integrated into the yeast genome using a URA3 auxotrophic marker and driven by the TDH3 promoter. Tethered peptide cassettes were expressed on either a Cen6 HIS3 backbone or integrated into the yeast genome using HIS3 auxotrophic markers and were driven by pHHF2 for plasmid-based expression, and pGal1 for integrated expression. Oligos were ordered as gblocks or single stranded DNA from IDT.

HsDOR = details: previously tested in yeast (Uddin et al. 2016); cited from earlier work

T1 sequence (P41145 whole entry): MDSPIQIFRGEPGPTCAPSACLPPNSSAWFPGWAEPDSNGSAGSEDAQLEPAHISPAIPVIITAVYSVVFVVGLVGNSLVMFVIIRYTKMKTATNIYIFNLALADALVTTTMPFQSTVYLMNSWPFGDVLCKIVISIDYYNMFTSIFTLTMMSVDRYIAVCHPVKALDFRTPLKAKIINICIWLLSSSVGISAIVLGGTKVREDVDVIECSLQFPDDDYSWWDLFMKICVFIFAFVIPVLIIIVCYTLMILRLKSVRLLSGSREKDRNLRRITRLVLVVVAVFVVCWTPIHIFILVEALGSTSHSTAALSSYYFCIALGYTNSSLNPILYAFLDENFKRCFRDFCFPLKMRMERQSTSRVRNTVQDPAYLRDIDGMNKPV

## CDIQLRRI
KOR; library 1
  top-performing motif unique for receptor: KOR

## GGGSGGGGSGGGSGGGGS [glycine-serine linker, glycine-serine linker, without peptide agonist, negative control]
Human opioid receptors
  activity of negative controls: no activity

## GLVNLRRI
MOR; library 1
  top-performing motif unique for receptor: MOR

## LVLLLRRI
MOR; library 1
  top-performing motif unique for receptor: MOR

## SAWPLRRI
KOR; library 1
  top-performing motif unique for receptor: KOR

## SHYVLRRI
KOR; library 1
  top-performing motif unique for receptor: KOR

## SVPFLRRI
KOR; library 1
  top-performing motif unique for receptor: KOR

## WWPDLRRI
DOR [1]; library 1
  top-performing motif unique for receptor: DOR

## YGFDLLRI
DOR [2]
  receptor specificity of individually cloned isolates: delta-specific
  signaling of individually cloned isolates: signaled strongly

## YGFDLRRI
DOR [1]; library 1
  top-performing motif unique for receptor: DOR

## YGGFGGSG
DOR [1]; library 2
  top-performing motif unique for receptor: DOR

## YGGFGSGR
DOR [1]; library 2
  top-performing motif unique for receptor: DOR

## YGGFMGSV
MOR; library 2
  top-performing motif unique for receptor: MOR

## YGGFMNYP
MOR; library 2
  top-performing motif unique for receptor: MOR

## YGGFMVAT
MOR; library 2
  top-performing motif unique for receptor: MOR

## YGGFRCCA
MOR; library 2
  top-performing motif unique for receptor: MOR

## YGGFSSGL
DOR [1]; library 2
  top-performing motif unique for receptor: DOR

## YGGFSSRG
DOR [1]; library 2
  top-performing motif unique for receptor: DOR

## YGGFSSSG
DOR [1]; library 2
  top-performing motif unique for receptor: DOR

## YGGFYRLR
KOR; library 2
  top-performing motif unique for receptor: KOR

## YGGFYSRW
KOR; library 2
  top-performing motif unique for receptor: KOR

## YGGFYSYA
KOR; library 2
  top-performing motif unique for receptor: KOR

## YGMELRRI
DOR [2]
  receptor specificity of individually cloned isolates: delta-specific
  signaling of individually cloned isolates: signaled strongly
DOR [1]; library 1
  top-performing motif unique for receptor: DOR

## YQRFLRRI
KOR; library 1
  top-performing motif unique for receptor: KOR

## dynorphin A 1-17
HsDOR
  activity: showed activity
